Data as given in article PMC10566545.

Molecular target: RNAP containing His-RpoA (wild type) (Pseudomonas aeruginosa PAO1) (UniProt O52760+Q51561+Q9HWC9+Q9HTM1)
Assay: EMSA
Details: 10 mM Tris-HCl, 50 mM KCl, 1 mM DTT, 1% glycerin, 10 mM MgCl2, 1 ug/ul poly(dI-dC), pH 7.5, room temperature, 30 min; 30 ng probe, 0.2 ug protein

Chain of RNAP containing His-RpoA (wild type) (Pseudomonas aeruginosa PAO1) (O52760 whole entry, chain 1 of 4): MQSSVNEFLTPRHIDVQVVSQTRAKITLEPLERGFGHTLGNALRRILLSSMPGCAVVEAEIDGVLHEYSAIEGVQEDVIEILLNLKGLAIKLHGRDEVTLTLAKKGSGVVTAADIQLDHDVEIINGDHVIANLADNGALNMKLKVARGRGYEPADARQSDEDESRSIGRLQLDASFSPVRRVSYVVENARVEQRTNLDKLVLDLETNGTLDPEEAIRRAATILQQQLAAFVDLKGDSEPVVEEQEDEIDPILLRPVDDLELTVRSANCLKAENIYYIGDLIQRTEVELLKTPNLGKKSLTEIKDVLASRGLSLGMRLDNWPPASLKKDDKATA
Chain of RNAP containing His-RpoA (wild type) (Pseudomonas aeruginosa PAO1) (Q51561 whole entry, chain 2 of 4): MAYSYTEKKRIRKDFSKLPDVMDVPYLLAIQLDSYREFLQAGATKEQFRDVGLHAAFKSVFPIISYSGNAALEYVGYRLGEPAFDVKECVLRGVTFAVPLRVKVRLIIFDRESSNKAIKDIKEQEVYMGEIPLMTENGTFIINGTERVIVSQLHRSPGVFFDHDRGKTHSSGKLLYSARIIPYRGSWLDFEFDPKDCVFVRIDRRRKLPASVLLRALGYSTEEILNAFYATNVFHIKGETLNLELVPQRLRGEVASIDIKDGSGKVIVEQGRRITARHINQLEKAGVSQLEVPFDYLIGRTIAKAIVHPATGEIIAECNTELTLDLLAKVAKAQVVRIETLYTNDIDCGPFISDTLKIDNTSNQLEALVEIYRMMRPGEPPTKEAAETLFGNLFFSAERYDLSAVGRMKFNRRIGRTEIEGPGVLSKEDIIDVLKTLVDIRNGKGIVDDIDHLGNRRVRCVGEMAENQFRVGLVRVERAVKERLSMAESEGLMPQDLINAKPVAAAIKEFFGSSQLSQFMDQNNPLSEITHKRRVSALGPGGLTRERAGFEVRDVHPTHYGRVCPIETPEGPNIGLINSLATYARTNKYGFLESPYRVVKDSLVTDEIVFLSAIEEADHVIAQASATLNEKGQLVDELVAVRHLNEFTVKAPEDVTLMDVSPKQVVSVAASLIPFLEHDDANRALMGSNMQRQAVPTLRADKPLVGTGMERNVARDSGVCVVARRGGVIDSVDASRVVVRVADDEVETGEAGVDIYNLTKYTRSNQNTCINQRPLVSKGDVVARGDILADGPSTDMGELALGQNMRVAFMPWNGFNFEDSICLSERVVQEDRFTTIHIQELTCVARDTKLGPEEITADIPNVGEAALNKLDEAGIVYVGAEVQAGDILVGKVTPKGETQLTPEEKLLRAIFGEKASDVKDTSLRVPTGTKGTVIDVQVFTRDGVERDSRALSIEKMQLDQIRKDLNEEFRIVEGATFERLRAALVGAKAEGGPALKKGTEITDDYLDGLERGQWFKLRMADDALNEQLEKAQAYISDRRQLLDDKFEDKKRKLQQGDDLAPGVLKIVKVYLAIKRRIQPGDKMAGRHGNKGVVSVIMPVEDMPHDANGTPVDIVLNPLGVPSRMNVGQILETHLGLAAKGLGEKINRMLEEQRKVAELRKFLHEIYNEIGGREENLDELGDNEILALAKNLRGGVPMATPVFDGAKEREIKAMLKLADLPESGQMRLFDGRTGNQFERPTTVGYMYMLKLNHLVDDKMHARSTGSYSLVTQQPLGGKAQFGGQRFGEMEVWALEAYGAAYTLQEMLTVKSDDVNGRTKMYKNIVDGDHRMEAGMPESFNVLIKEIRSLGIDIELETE
Chain of RNAP containing His-RpoA (wild type) (Pseudomonas aeruginosa PAO1) (Q9HWC9 whole entry, chain 3 of 4): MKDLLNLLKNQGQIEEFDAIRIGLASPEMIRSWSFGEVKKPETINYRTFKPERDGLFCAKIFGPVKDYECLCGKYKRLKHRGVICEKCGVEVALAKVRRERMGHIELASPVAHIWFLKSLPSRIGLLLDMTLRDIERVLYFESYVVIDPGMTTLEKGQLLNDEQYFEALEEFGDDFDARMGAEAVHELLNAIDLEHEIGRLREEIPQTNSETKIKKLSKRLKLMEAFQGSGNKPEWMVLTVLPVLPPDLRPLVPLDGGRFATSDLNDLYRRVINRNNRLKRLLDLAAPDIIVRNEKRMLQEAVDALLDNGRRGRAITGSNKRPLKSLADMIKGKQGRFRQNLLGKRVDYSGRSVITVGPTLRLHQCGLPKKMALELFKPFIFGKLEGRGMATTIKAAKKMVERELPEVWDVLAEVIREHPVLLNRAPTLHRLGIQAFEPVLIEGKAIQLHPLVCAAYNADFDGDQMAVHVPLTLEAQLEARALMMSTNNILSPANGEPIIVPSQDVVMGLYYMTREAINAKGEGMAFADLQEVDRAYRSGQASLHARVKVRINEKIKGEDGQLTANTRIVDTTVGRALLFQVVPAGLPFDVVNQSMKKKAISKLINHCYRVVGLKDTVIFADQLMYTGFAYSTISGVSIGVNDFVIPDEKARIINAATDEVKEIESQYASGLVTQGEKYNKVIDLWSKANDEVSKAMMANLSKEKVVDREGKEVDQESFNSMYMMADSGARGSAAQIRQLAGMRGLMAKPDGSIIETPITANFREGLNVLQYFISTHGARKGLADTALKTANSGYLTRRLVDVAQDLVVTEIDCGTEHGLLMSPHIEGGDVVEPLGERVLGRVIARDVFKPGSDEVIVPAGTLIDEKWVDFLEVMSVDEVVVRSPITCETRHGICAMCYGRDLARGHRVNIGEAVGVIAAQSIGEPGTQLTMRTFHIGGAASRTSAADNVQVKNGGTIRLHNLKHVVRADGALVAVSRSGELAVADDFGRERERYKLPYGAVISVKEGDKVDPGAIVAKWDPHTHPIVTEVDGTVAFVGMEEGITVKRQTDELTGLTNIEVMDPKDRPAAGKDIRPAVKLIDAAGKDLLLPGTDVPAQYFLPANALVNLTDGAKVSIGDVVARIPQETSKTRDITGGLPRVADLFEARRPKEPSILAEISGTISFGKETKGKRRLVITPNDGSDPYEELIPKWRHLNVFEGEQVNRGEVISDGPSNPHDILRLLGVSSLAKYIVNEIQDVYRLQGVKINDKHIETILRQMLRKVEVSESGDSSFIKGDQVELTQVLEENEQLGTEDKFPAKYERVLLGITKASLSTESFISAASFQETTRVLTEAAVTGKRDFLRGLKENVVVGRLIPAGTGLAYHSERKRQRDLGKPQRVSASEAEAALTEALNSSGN
Chain of RNAP containing His-RpoA (wild type) (Pseudomonas aeruginosa PAO1) (Q9HTM1 whole entry, chain 4 of 4): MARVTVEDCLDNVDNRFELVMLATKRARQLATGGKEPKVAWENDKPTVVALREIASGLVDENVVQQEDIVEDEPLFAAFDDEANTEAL

AGTCTCTGAGCCCTCCGGCAGCTACCCGCACGAGGCGTCGCAACGGGAAAATCGATCGCGCGCCGCGGGTGTGCGGCTTATTCCATCGAAAGCACTGTCCATAACCATCGACTGTTACAGAAAACGAAAAACCATGTATCACTGTTCGTGATAATCAAAATCTCGTCGTTCGATTAGTTCCCTGCCGGAGCAGCCCGCAGACTTCGCCAATCCCGAAAAACCGACTGGCGGAGTCAAGCATGGTTTTTT (double strand) [PmexE probe (mexEF-oprN promoter)]
binding: binds
